Reference: patent US20140303084A1 (Biogen, published 2014)
Square brackets hold non-standard residues; d marks the D form. Ends that are not written are not given here. NMeL = CN[C@@H](CC(C)C)C(=O)O

B1: VSGTGKLTCLASYCWLFQLGSF (peptide)
peptide: VSGTGKLTCLASYCWLFQLGSF
B2: HLGSPKLTCGASQCWLLNHEVS (peptide)
peptide: HLGSPKLTCGASQCWLLNHEVS
B3: SRQSDKPTCLAISCSLLTSNVR (peptide)
peptide: SRQSDKPTCLAISCSLLTSNVR
B4: QEQPAKLTCRGSYCWLFKRGDQ (peptide)
peptide: QEQPAKLTCRGSYCWLFKRGDQ
B5: HDSLDQLTCLASVCQLASMGAR (peptide)
peptide: HDSLDQLTCLASVCQLASMGAR
B6: k-k-MeLeu-TCLASYCWLF (peptide)
peptide: KKLTCLASYCWLF
modifications: not fully specified; D-Lys 1, D-Lys 2, MeLeu 3
B7: RRAPAKLQCLASYCWLFWTGIA (peptide)
peptide: RRAPAKLQCLASYCWLFWTGIA
B8: RQLWNKLTCLASYCALIGLSGT (peptide)
peptide: RQLWNKLTCLASYCALIGLSGT
B9: RSTVSQMRCLASYCWLFPALVS (peptide)
peptide: RSTVSQMRCLASYCWLFPALVS
B10: RGSVHQPTCLGGYCGRLHSSWV (peptide)
peptide: RGSVHQPTCLGGYCGRLHSSWV
B11: QAKMLKLTCLASYCWLFWVTRS (peptide)
peptide: QAKMLKLTCLASYCWLFWVTRS
B12: RRAPGKLQCLASYCWLFATAIA (peptide)
peptide: RRAPGKLQCLASYCWLFATAIA
B13: RHSNHNLTCQASYCWLLPAGLQ (peptide)
peptide: RHSNHNLTCQASYCWLLPAGLQ
B14: K-k-MeLeu-TCLASYCWLF (peptide)
peptide: K[dK][NMeL]TCLASYCWLF
modifications: not fully specified; printed as K-k-MeLeu-TCLASYCWLF; cysteine pairing not given here
B15: VARASKVECLASYCQLFVGGEV (peptide)
peptide: VARASKVECLASYCQLFVGGEV
B16: GDSGRKLSCLGSYCWLSVQFMA (peptide)
peptide: GDSGRKLSCLGSYCWLSVQFMA
B17: k-MeLeu-TCLAS-(Y-OMe)-CWLF (peptide)
peptide: [dK][NMeL]TCLASYCWLF
modifications: not fully specified (residue 8); cysteine pairing not given here
B18: R-k-MeLeu-TCLASYCWLF (peptide)
peptide: R[dK][NMeL]TCLASYCWLF
modifications: cysteine pairing not given here
B19: HGLADRLTCLSSDCWLQPFGTS (peptide)
peptide: HGLADRLTCLSSDCWLQPFGTS
B20: RRAAGKLQCLASYCWLFWTGIA (peptide)
peptide: RRAAGKLQCLASYCWLFWTGIA
B21: RGRSAKLRCLASYCWLFFGVIL (peptide)
peptide: RGRSAKLRCLASYCWLFFGVIL
B22: KGAYQKLTCLASYCLLFLLTAQ (peptide)
peptide: KGAYQKLTCLASYCLLFLLTAQ
B23: SKWEHQRGCLANNCWLFTLAPG (peptide)
peptide: SKWEHQRGCLANNCWLFTLAPG
B24: Ac-K-k-MeLeu-TCLASYCWLF (peptide)
peptide: Ac-K[dK][NMeL]TCLASYCWLF
modifications: cysteine pairing not given here
B25: GASGRRRTCVASYCLLFQSGLP (peptide)
peptide: GASGRRRTCVASYCLLFQSGLP
B26: DAKVAKLRCLGSQCWLLQYAPG (peptide)
peptide: DAKVAKLRCLGSQCWLLQYAPG
B27: VSGTGRLTCVASYCWMFQLGSF (peptide)
peptide: VSGTGRLTCVASYCWMFQLGSF
B28: NGGMQKPACLASQCWLFANPLP (peptide)
peptide: NGGMQKPACLASQCWLFANPLP
B29: RGRSAKLRCLASYCWLFFTVIL (peptide)
peptide: RGRSAKLRCLASYCWLFFTVIL
B30: KKK-k-MeLeu-TCLASYCWLF (peptide)
peptide: KKK[dK][NMeL]TCLASYCWLF
modifications: not fully specified; printed as KKK-k-MeLeu-TCLASYCWLF; cysteine pairing not given here
B31: HQQRRKLTCLAGYCWLFVLGPS (peptide)
peptide: HQQRRKLTCLAGYCWLFVLGPS
modifications: not fully specified; cysteine pairing not given here
B32: KRYVYRQMCLVSACWLLQLGYA (peptide)
peptide: KRYVYRQMCLVSACWLLQLGYA
B33: k-MeLeu-TCLASYCQLF (peptide)
peptide: [dK][NMeL]TCLASYCQLF
modifications: not fully specified (C-terminus); printed as k-MeLeu-TCLASYCQLF; cysteine pairing not given here
B34: FPIQHKLTCLSSDCWLFPSHSY (peptide)
peptide: FPIQHKLTCLSSDCWLFPSHSY
B35: RGRSAKLTCLASYCWLFFGVIL (peptide)
peptide: RGRSAKLTCLASYCWLFFGVIL
B36: KK-k-MeLeu-TCLASYCWLF (peptide)
peptide: KK[dK][NMeL]TCLASYCWLF
modifications: not fully specified; printed as KK-k-MeLeu-TCLASYCWLF; cysteine pairing not given here
B37: VSGTGRLTCVASYCWMFQLGIF (peptide)
peptide: VSGTGRLTCVASYCWMFQLGIF

Biological target: human Factor IXa (human, UniProt P00740 47-191; P00740 227-461)
Test: cell-based or functional assay

Compared with B1, B2 is higher in “EC50 [µM], FXa generation assay” value: less than 0.5 µM for the first, greater than 50 µM for the second.

B3 and B4 cannot be ordered by “EC50 [µM], FXa generation assay” value: greater than 50 µM for the first, greater than 50 µM for the second.

B5 and B6 cannot be ordered by “EC50 [µM], FXa generation assay” value: greater than 1 µM for the first, greater than 2.5 µM for the second.

First: B7
Second: B8
The “EC50 [µM], FXa generation assay” value of the first is lower: less than 0.5 µM for the first, greater than 1 µM for the second.

Going from B9 to B10, the “EC50 [µM], FXa generation assay” value rises from less than 0.5 µM to greater than 50 µM.

B11 and B12 cannot be ordered by “EC50 [µM], FXa generation assay” value: less than 0.5 µM for the first, less than 0.5 µM for the second.

B13 and B14 cannot be ordered by “EC50 [µM], FXa generation assay” value: greater than 1 µM for the first, greater than 1 µM for the second.

Going from B15 to B16, the “EC50 [µM], FXa generation assay” value falls from greater than 1 µM to less than 0.5 µM.

First: B17
Second: B18
The “EC50 [µM], FXa generation assay” value of the first is lower: less than 0.5 µM for the first, greater than 1 µM for the second.

Going from B19 to B20, the “EC50 [µM], FXa generation assay” value falls from greater than 50 µM to less than 0.5 µM.

B21 and B22 cannot be ordered by “EC50 [µM], FXa generation assay” value: less than 0.5 µM for the first, less than 0.5 µM for the second.

Going from B23 to B24, the “EC50 [µM], FXa generation assay” value falls from greater than 50 µM to less than 0.5 µM.

Compared with B25, B26 is lower in “EC50 [µM], FXa generation assay” value: greater than 25 µM for the first, less than 0.5 µM for the second.

First: B27
Second: B28
The “EC50 [µM], FXa generation assay” value of the first is lower: less than 0.5 µM for the first, greater than 1 µM for the second.

Going from B29 to B30, the “EC50 [µM], FXa generation assay” value rises from less than 0.5 µM to greater than 20 µM.

Compared with B31, B32 is lower in “EC50 [µM], FXa generation assay” value: greater than 1 µM for the first, less than 0.5 µM for the second.

B33 and B34 cannot be ordered by “EC50 [µM], FXa generation assay” value: greater than 1 µM for the first, greater than 50 µM for the second.

Compared with B35, B36 is higher in “EC50 [µM], FXa generation assay” value: less than 0.5 µM for the first, greater than 10 µM for the second.

With B37 the “EC50 [µM], FXa generation assay” value was less than 0.5 µM.
